Reference: the nanobody polyreactivity screen of Harvey et al. (2022)

test: yeast display, Sf9 membrane polyspecificity reagent, FACS + sequencing; frameworks hold sequencing errors
Method in brief: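 Synthetic nanobody libraries on Saccharomyces cerevisiae BJ5465 were galactose-induced for 36–48 hours, stained 1 hour at 4 °C with 10% biotinylated, detergent-solubilized Sf9 membrane reagent and enriched on streptavidin microbeads. FACS then separated cells into low and high (top ~1%) gates by anti-HA (expression) and streptavidin (reagent binding) fluorescence. Genes were colony-PCR amplified, MiSeq 2 × 250 sequenced and CDR-length filtered. A clone's polyreactivity label is that of its gate of origin.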

Sequence	polyreactivity (PSR sort gate)
QVQLGESGGGLVQAGGSLRLSCAASGRTFHGYAMGWYRQAPGKERELVARINWSDGRTYYADSVKGRFTISRDNAKNTVYLQMNSLKPEDTAVYYCAADKTVSYAPAWYYYWGQGTQVTVSS	low polyreactivity
QVQLGESGGGLVQAGGSLRLSCAASGRTFVDNHMGWYRQAPGKERELVAAITWRGGGTYYADSVKGRFTISRYNAKNTVYLQMNSLKPEDTAVYYSAADQRPPFVEPRGLSTGEFDYWGQGTQVTVSS	low polyreactivity
QVQLGESGGGLVQAGGSLRLSCAASGSIFEVYAMGWYRQAPGKERELVAAINYTGGSTYYADSVKGRFTISRDNAKNTVYLQMNSLKPEDTAVYYCARDTSGIGTRYDYWGQGTQVTLSS	low polyreactivity
QVQLGESGGGLVQAGGSLRLSCAASGSTFPVYAMGWSRQAPGKEWELVAAISSGGTTNYADSVKGRFTISRDNAKNTVYLQRNSLKPEDTAVYYCAADDWYYHFLVSSSAFDYWGQGTQVTVSS	high polyreactivity
QVQLGESGGGLVQAGGSLRLSCAASGSTFVWYAMGWYRQAPGKERELVANISGSGGSTYYADSVKGRFTISRDNAKNTVYLQMNSLKPEDNAVYYCAAQRQWRTQYDDDYWGQGTQVTVSS	low polyreactivity
QVQLGESGGGLVQAGGSLRLSCAASGTIYGYVMGWYRQAPGKERVLVAAISSSGGSTYYADSVKGRFTISRDNAKNTVYLQMNSLKPEDTAVYYCAKGLTYARRYGYWGQRTQVTVSS	high polyreactivity
QVQLGESGGGLVQAGGSLRLSCAASGYIFAYYAMGWSRQAPGKERELVAAISRSGGSTYYADSVKGRFTISRDNAKNTVYLEMISLKPEDTAVSYCAARSTGNYEREYNYWGQGTQVTVSS	high polyreactivity
QVQLGESGGGLVQAGGSLRLTCAASGIIFPYYAMGWYRQATGKERELVAGISSSGGITYADSVKGRFTISRDNGKNTVYLQMNSLKPEDTAVYYCNAEYQWLEYDYCGQGTQVTVSS	low polyreactivity
QVQLGESGGGLVQAGGSLRLTCAASGITFAYYVMGWYRKAPGKERELVAASTRSGDFTSYADSVKGRFTISRDNAKNTVYFQMNSLKPEDTAVYYCNARRGYQSRRYNYWGQGTQVTVSS	high polyreactivity
QVQLGESGGGLVQAGGSLRLTCAASGITFGPYAMGWSRQAPGKERELVAAITWRGGSTYYADSVKGRFTISRDNAKNTVYLQMNSLKPEDTAVYYCNAKTEYGSPRGYGSWGQGTQVTVSS	low polyreactivity
QVQLGESGGGLVQAGGSLRVICAASGFIFRDYAMGWYIQAPGKERELFAAIRSTTGSTYYADSVKGRFTISRDNSKNTVYLQMNSLKPEDTAVYYCAAAYPFYADMDYSGQGTQVTVSS	low polyreactivity
QVQLGESGGGLVQAGGSRRFSSAASGSIVKAYAMGWYRPAPGKDRELVAAISTSDGSTYYADSVKGRFTISRDNAKNTVYLQMNSLKPEDTAVYYCATEYDYWDDSYDSWGQGTQVTVSS	low polyreactivity
QVQLGESGGGLVQAGRSLRLSCAASGSTIGPDAMGWYRQAPGTERELVAAIRYSSVRTYYADSVKGRFTISRDNAKNSVYVQMNSLKPEDTAVYYCNAVFWSYTVWGRSDYWGQGTQVTVSS	low polyreactivity
QVQLGESGGGLVQAGVSLRLSCAASGSLFYHNAMGWYRHAPGKERELVAAISGRGGSTYYADSVKGRFTISRDNAKNTVYLQMNSLKPEDTAVYYCAADARYQNGGLYYWGQGTQVTVSS	high polyreactivity
QVQLGESGGGLVQSGGSLRLSCAASGRIFDLNAMGWYRPAPGKERELVAAISYSDGSTYYADSVKGRFTISRDNEKNTVYLQMNSLKTEDTAVYYCAADFFDRTYITWYEYWGQGTQVTVSS	high polyreactivity
QVQLGESGGVLVQAGGSLRLSCAASGRIFSENAMGWYRQATGKEWELVAAITGNGGDTYYADSVKGRFTISRDTAKNTVYLQMNSLKPEDTAVYYCAAETGGLGGDYWGQGTQVTVSS	low polyreactivity

Sequence	polyreactivity (PSR sort gate)
QVQLGESRGGIVQAGGSLRLSCAASGSTFSYYAMGWYRQAPGKARELVAAISNRGGSTYYADSVKGRFTISRDNAKNTVYLQMNSLKPEDTAVYYCAAYYVFGYSTSGDYWGQGTQVTVSS	high polyreactivity
QVQLGESRGGLVQAGGSLRLSCAASGRTFTGYAMGWYRQAPGKERELVAAITVSSGRTYYADSVKGRFTISRDNAKNTVYLQMNSLKPEDTAVYYCAKRFRSTHLWKFGGYDYWGQGTQVTVSS	high polyreactivity
QVQLGESVGGLVQAGGSLRLSCAASGRIFEPYAMGWYRQAPGKESELVAAINSGGSTNYADSVKGRFTISRDNAKNTVYLQMNSLKPEDTAVYYCNKGQNIRQSPGDYWGLGTQVTVSS	low polyreactivity
QVQLHESAGGLEQAGGCLSCTASGTIFGQGDMCWYLQAPGKEPELVGTINDGASTYYADSVKGRFTISRDKAKNTVYLQKNSLKPADTAVYYCSVFTDITTYFGYWGQGTQVTVSS	low polyreactivity
QVQLHESGGGLVQAGGGLRLSCAASGSISSTGFMGWYRQAPGKEREPVAAIAPGTTTYYADSVKGRFTISRDNAINTVYLQMNSLRPEDTAVYYCAVFTDNRVAFLYWGQGTQVTVSS	low polyreactivity
QVQLHESGGGLVQAGGGLRLSSAASGSISSTGFMGWYRQAPGKEREPVAAIAPGTTTYYADSVKGRFTISRDNAKNTVYLQMNSLRPEDTAVYYCAVFTDNRVAFLYWGQGTQVTVSS	low polyreactivity
QVQLHESGGGLVQAGGSLRLSCAASGTISYAGPMGWYRQAPGKEREFVAGIGVGSNTNYADSVKGRYTIIRDNAKNTVYLQMNSLNPEDTAVYYCAVGGYDPLGRPYWGQGTQVTVSS	low polyreactivity
QVQLIESGGGLVQAGGSLRLSCAASGSSLYYYALGWYRQAPGKEREWVAAISSSDGRTYYADSVKGRFTISRDNAKNTVYVQMNSLKPEDTAVYYCNAAVYAHRYIYGFDYWGQGTQVTVSS	high polyreactivity
QVQLKESVGGLVQAGGILRLSCAASGNIFPTDRMAWYRQAPGTELEFVATISHGGSTNYADSVKGRFTISRDNSKNTLYLQMNSLKPEDTAVYYWWGWSLGRWRHYYWGQGTQVTVSS	low polyreactivity
QVQLLESGDGLVQAVGSLRLSCAASGYISGYYYMGWYRQAPGKERELVAGIDAFGSSTNYADCVKGRFTISRDNAINSVYLQMNSLKPEDTAVYYCAARPDGDRLFSYWGQGTQVTVSS	low polyreactivity
QVQLLESGGALVQAAGSLRLSCAASGYTIGRYAIGWYRHAPGKDRELVAAITWSGGSTYYADSVKGRFTISRDNAKNTVYLQMNSLKPEDTAVYYCAKRYRYYSYGPYGMYYWGQGTQVSVSS	high polyreactivity
QVQLLESGGGIVQAGGSLRLSCAASGRINAMGWYRQAPGKERELVAVITLRGGSTYYADSVKGRFTISRDNAKNTVYLQMNSLKPEYTAVYYCAAVYRWPDAKYDYWGQGTQVSVSS	low polyreactivity
QVQLLESGGGIVQAGGSLRLSCGASGSTFTLNAMGWYRQAPGTEREFVADISWSSGRTYYADSVKGRFTISRDNAKNTVYVQMNSLKQEDTAVYYCATDDFWNVKFYAYYPEFDYWGQGTQVNVSS	low polyreactivity
QVQLLESGGGLDKAGVRIRLSCASSGIIFAWYAMVWYRQAHRKEMELVAAISWSCGSTYYAYSVKLRFTISRDNAKNTVDLQMNSLTPEDTAVYYCATYPRRQGKYAYWGQGTQVTVSS	high polyreactivity
QVQLLESGGGLFQAGGSLRLSCAASGRIFDPYAMGWYRKAPWKETELVAAISWRGGSTNYADSVKGRFTISRDNAKNTVYLQMNSLKPEDTAVYYCAAVPVRYRYSYGYYYWGQGTQVTVSS	high polyreactivity
QVQLLESGGGLFQPGGSLRLSCAASGRTFDGNVMGWYRQAPGKETELVAAITASGGRTYYADSVKGRFTISSDNAKNTVYLQMNSLKAEDTAVYYCNAGIRRSRGTMDYWGQGTQVTVSS	high polyreactivity
